Assay results as given in publication doi:10.1101/2022.10.19.512861.

Molecular target: MreB from Geobacillus stearothermophilus (MreB^Gs), wild type, His6-tagged (Geobacillus stearothermophilus ATCC 7953)
Assay: negative stain electron microscopy of polymerization

“MreB from Geobacillus stearothermophilus (MreB^Gs), wild type, His6-tagged (natural protein)” showed a concentration of MreB above which polymers were observed of 0.55 µM.
